US20210347873A1 (SHANGHAI PHARMAEXPLORER, published 2021)
Values belong to the binder of their own block, whether it stands above or below them.

Experiments:
[1] = molecular target: T1, cynomolgus BLyS (full length, arginine to histidine at position 132) on CHO-K1 cells (cynomolgus, UniProt Q9Y275 1-285 (human entry)); test: flow cytometry, CHO-K1 cynoBLyS cells, antibody 0 nM
T1 construct: also called cyno BLyS; CHO-K1 cynoBLyS
T1 chain: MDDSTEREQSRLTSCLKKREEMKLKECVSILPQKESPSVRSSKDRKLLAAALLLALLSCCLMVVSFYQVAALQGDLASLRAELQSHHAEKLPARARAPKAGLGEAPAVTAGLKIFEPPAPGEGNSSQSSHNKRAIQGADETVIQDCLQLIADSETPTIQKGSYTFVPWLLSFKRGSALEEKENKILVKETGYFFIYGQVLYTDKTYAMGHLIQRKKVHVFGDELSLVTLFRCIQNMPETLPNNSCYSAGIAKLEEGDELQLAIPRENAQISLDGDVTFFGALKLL
Method: (§1) The medium was aspirated completely, and the cells were rinsed once with PBS buffer (purchased from Invitrogen) and then treated with cell dispersion solution (TrypLE™ Express Enzyme, purchased from Life technology) and collected. The detailed steps are as follows: the cells were rinsed once with PBS buffer, after counting, the cells were diluted to 2×10⁶ cells/ml with PBS buffer, blocked with 2% (w/w) fetal bovine serum and incubated on ice for 30 minutes. 200 μL of which per well was aliquoted into a 96-well FACS plate and centrifuged at 2000 rpm at 4° C., then each 100 μL of the lead antibodies obtained from Embodiment 1 and 2 were aliquoted into each well and incubated on ice for 1 hour. […] After centrifuged and rinsed 3 times with FACS buffer, cells were suspended with 200 μL of FACS buffer and the results were detected and analyzed by FACS (FACS Calibur, purchased from BD). It was shown in Tables 12-13 that the lead antibody could bind to human BLyS protein on the cell surface and the lead antibody could cross-react with cynomolgus BLyS. The data in the table is MFI, the average fluorescence intensity of the cell population.

[2] = molecular target: T1, cynomolgus BLyS (full length, arginine …); test: flow cytometry, CHO-K1 cynoBLyS cells, antibody 0.107 nM
Method: as §1

[3] = molecular target: T1, cynomolgus BLyS (full length, arginine …); test: flow cytometry, CHO-K1 cynoBLyS cells, antibody 2.67 nM
Method: as §1

[4] = molecular target: T2, human BLyS (full length, arginine to histidine at position 132) on CHO-K1 cells (human, UniProt Q9Y275 1-285); test: flow cytometry, CHO-K1 hBLyS cells, antibody 66.7 nM
T2 construct: also called hBLyS; CHO-K1 hBLyS
Method: as §1

[5] = molecular target: T2, human BLyS (full length, arginine to …); test: flow cytometry, CHO-K1 hBLyS cells, antibody 0 nM
Method: as §1

[6] = molecular target: T1, cynomolgus BLyS (full length, arginine …); test: flow cytometry, CHO-K1 cynoBLyS cells, antibody 13.3 nM
Method: as §1

[7] = molecular target: T2, human BLyS (full length, arginine to …); test: flow cytometry, CHO-K1 hBLyS cells, antibody 2.67 nM
Method: as §1

[8] = molecular target: T1, cynomolgus BLyS (full length, arginine …); test: flow cytometry, CHO-K1 cynoBLyS cells, antibody 0.534 nM
Method: as §1

[9] = molecular target: hBLyS-ECD (His-tagged extracellular domain of human BLyS protein, Ala134-Leu285) (human, UniProt Q9Y275 134-285); test: cell-based or functional assay
[10] = molecular target: T1, cynomolgus BLyS (full length, arginine …); test: flow cytometry, CHO-K1 cynoBLyS cells, antibody 0.0213 nM
Method: as §1

[11] = molecular target: T2, human BLyS (full length, arginine to …); test: flow cytometry, CHO-K1 hBLyS cells, antibody 0.00427 nM
Method: as §1

mouse BLyS protein = mouse BLyS protein (mouse, UniProt Q9WU72 69-309); test: cell-based or functional assay
[12] = molecular target: T1, cynomolgus BLyS (full length, arginine …); test: flow cytometry, CHO-K1 cynoBLyS cells, antibody 0.00427 nM
Method: as §1

[13] = molecular target: T1, cynomolgus BLyS (full length, arginine …); test: flow cytometry, CHO-K1 cynoBLyS cells, antibody 66.7 nM
Method: as §1

[14] = molecular target: T2, human BLyS (full length, arginine to …); test: flow cytometry, CHO-K1 hBLyS cells, antibody 0.0213 nM
Method: as §1

[15] = molecular target: T2, human BLyS (full length, arginine to …); test: flow cytometry, CHO-K1 hBLyS cells, antibody 13.3 nM
Method: as §1

[16] = molecular target: T2, human BLyS (full length, arginine to …); test: flow cytometry, CHO-K1 hBLyS cells, antibody 0.534 nM
Method: as §1

[17] = molecular target: T2, human BLyS (full length, arginine to …); test: flow cytometry, CHO-K1 hBLyS cells, antibody 0.107 nM
Method: as §1

[18] = molecular target: T3, human BLyS (full length, arginine 132 mutated to histidine) on CHO-K1 cells (human, UniProt Q9Y275 1-285); test: flow cytometry (FACS) on CHO-K1 hBLyS cells, Alexa 488 secondary antibody
T3 construct: also called hBLyS; CHO-K1 hBLyS
Method: as §1

[19] = molecular target: T4, cynomolgus BLyS (full length, arginine 132 mutated to histidine) on CHO-K1 cells (cynomolgus, UniProt Q9Y275 1-285 (human entry)); test: flow cytometry (FACS) on CHO-K1 cynoBLyS cells, Alexa 488 secondary antibody
T4 construct: also called cyno BLyS; CHO-K1 cynoBLyS
T4 chain: T1 chain
Method: as §1

T3 sequence (Q9Y275 other isoform, or with tags, fused parts or gaps limits assumed, change not shown): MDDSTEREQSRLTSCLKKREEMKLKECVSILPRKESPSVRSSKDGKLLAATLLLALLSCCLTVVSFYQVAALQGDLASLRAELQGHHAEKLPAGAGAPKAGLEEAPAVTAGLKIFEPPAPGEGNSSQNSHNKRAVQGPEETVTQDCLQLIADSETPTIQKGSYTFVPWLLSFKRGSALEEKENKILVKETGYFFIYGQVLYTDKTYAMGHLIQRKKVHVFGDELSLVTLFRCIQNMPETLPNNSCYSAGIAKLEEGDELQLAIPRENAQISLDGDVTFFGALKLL
Chain of mouse BLyS protein (Q9WU72 69-309): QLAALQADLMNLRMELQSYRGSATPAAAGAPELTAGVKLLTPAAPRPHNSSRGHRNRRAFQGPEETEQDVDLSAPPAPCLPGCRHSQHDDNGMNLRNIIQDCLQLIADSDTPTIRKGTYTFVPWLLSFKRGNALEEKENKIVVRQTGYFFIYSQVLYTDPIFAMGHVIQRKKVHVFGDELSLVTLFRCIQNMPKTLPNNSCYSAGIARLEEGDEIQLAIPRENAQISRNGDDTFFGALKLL

MFI [1]: 22.8 MFI | MFI [2]: 288 MFI | MFI [3]: 705 MFI | MFI [4]: 406 MFI | MFI [5]: 32.4 MFI | MFI [6]: 710 MFI | MFI [7]: 332 MFI | MFI [8]: 688 MFI | mouse B lymphocyte proliferation (OD450 nm), antibody 0 nM [9]: 2960 OD450 nm | mouse B lymphocyte proliferation (OD450 nm), antibody 0.000256 nM [9]: 3380 OD450 nm | mouse B lymphocyte proliferation (OD450 nm), antibody 0.00128 nM [9]: 3760 OD450 nm | mouse B lymphocyte proliferation (OD450 nm), antibody 0.0064 nM [9]: 3770 OD450 nm | mouse B lymphocyte proliferation (OD450 nm), antibody 0.032 nM [9]: 2940 OD450 nm | mouse B lymphocyte proliferation (OD450 nm), antibody 0.16 nM [9]: 2990 OD450 nm | mouse B lymphocyte proliferation (OD450 nm), antibody 0.8 nM [9]: 438 OD450 nm | mouse B lymphocyte proliferation (OD450 nm), antibody 4 nM [9]: 364 OD450 nm | mouse B lymphocyte proliferation (OD450 nm), antibody 20 nM [9]: 383 OD450 nm | mouse B lymphocyte proliferation (OD450 nm), antibody 100 nM [9]: 377 OD450 nm | MFI [10]: 112 MFI | MFI [11]: 48.2 MFI | mouse B lymphocyte proliferation (OD450 nm), antibody 0 nM (mouse BLyS protein): 2130 OD450 nm | mouse B lymphocyte proliferation (OD450 nm), antibody 0.000256 nM (mouse BLyS protein): 2200 OD450 nm | mouse B lymphocyte proliferation (OD450 nm), antibody 0.00128 nM (mouse BLyS protein): 2150 OD450 nm | mouse B lymphocyte proliferation (OD450 nm), antibody 0.0064 nM (mouse BLyS protein): 2310 OD450 nm | mouse B lymphocyte proliferation (OD450 nm), antibody 0.032 nM (mouse BLyS protein): 2580 OD450 nm | mouse B lymphocyte proliferation (OD450 nm), antibody 0.16 nM (mouse BLyS protein): 2360 OD450 nm | mouse B lymphocyte proliferation (OD450 nm), antibody 0.8 nM (mouse BLyS protein): 2310 OD450 nm | mouse B lymphocyte proliferation (OD450 nm), antibody 4 nM (mouse BLyS protein): 2410 OD450 nm | mouse B lymphocyte proliferation (OD450 nm), antibody 20 nM (mouse BLyS protein): 2290 OD450 nm | mouse B lymphocyte proliferation (OD450 nm), antibody 100 nM (mouse BLyS protein): 2310 OD450 nm | MFI [12]: 53 MFI | MFI [13]: 770 MFI | MFI [14]: 78.7 MFI | MFI [15]: 349 MFI | MFI [16]: 318 MFI | MFI [17]: 174 MFI
B1: 97E7B3F2 (antibody, V domains shown)
VH: EVQLQQSGPELVKSGASVKISCKASGYTFTDHKMHWVKQSHGKSLEWIGYISPYNGGTGYNQKFKSKVTLTVDISSSTAYMELRSLTSEDSAVYYCARWGFYDVMDSWGQGTSVTVSS
VL: DVLLTQTPLSLPVSLGDQASISCRSSQTIVHIIGDTYLEWYLQKPGQSPKLLIYKVSNRFSGVPDRFSGSGAGTDFTLKISRVEAEDLGVYYCFQGSHVPRTFGGGTKLEIK
notes: Mouse hybridoma monoclonal antibody purified on Protein G

EC50 (read off the curve) [18]: ~0.1 nM | EC50 (read off the curve) [19]: ~0.1 nM
B2: 97E7B3F2 (antibody, V domains shown)
VH: B1 VH
VL: B1 VL
notes: Mouse hybridoma antibody purified on Protein G

EC50 (read off the curve) [18]: ~0.2 nM | EC50 (read off the curve) [19]: ~0.2 nM
B3: 20D1B6E9E5 (antibody, V domains shown)
VH: EVQLQQSVAELVRPGASVKLSCTASDFNIKNTYIHWVKQRPEQGLEWIGRIDPVNGNTKYAPKFQDKATIIVDTYSNTAYLQLSSLASEDTAVYYCARWPITTIVATDWYFDVWGTGTTVTVSS
VL: DVLMTQTQLALPVRLGEQASISCRSSQSIVNSNGNTYLEWYLQKPGQSPKLLIYKVSNRFSGVPDRFSGSGSGTDFTLKISRVEAEDLGVYYCFQGSHVPWTFGGGTKLEIK
notes: as for B2

MFI [1]: 21.9 MFI | MFI [2]: 308 MFI | MFI [3]: 729 MFI | MFI [4]: 392 MFI | MFI [5]: 31.6 MFI | MFI [6]: 714 MFI | MFI [7]: 317 MFI | MFI [8]: 706 MFI | mouse B lymphocyte proliferation (OD450 nm), antibody 0 nM [9]: 3030 OD450 nm | mouse B lymphocyte proliferation (OD450 nm), antibody 0.000256 nM [9]: 3420 OD450 nm | mouse B lymphocyte proliferation (OD450 nm), antibody 0.00128 nM [9]: 3550 OD450 nm | mouse B lymphocyte proliferation (OD450 nm), antibody 0.0064 nM [9]: 4050 OD450 nm | mouse B lymphocyte proliferation (OD450 nm), antibody 0.032 nM [9]: 4360 OD450 nm | mouse B lymphocyte proliferation (OD450 nm), antibody 0.16 nM [9]: 3530 OD450 nm | mouse B lymphocyte proliferation (OD450 nm), antibody 0.8 nM [9]: 799 OD450 nm | mouse B lymphocyte proliferation (OD450 nm), antibody 4 nM [9]: 514 OD450 nm | mouse B lymphocyte proliferation (OD450 nm), antibody 20 nM [9]: 466 OD450 nm | mouse B lymphocyte proliferation (OD450 nm), antibody 100 nM [9]: 416 OD450 nm | MFI [10]: 112 MFI | MFI [11]: 44.9 MFI | mouse B lymphocyte proliferation (OD450 nm), antibody 0 nM (mouse BLyS protein): 2310 OD450 nm | mouse B lymphocyte proliferation (OD450 nm), antibody 0.000256 nM (mouse BLyS protein): 2310 OD450 nm | mouse B lymphocyte proliferation (OD450 nm), antibody 0.00128 nM (mouse BLyS protein): 2290 OD450 nm | mouse B lymphocyte proliferation (OD450 nm), antibody 0.0064 nM (mouse BLyS protein): 2510 OD450 nm | mouse B lymphocyte proliferation (OD450 nm), antibody 0.032 nM (mouse BLyS protein): 2540 OD450 nm | mouse B lymphocyte proliferation (OD450 nm), antibody 0.16 nM (mouse BLyS protein): 2540 OD450 nm | mouse B lymphocyte proliferation (OD450 nm), antibody 0.8 nM (mouse BLyS protein): 2530 OD450 nm | mouse B lymphocyte proliferation (OD450 nm), antibody 4 nM (mouse BLyS protein): 2640 OD450 nm | mouse B lymphocyte proliferation (OD450 nm), antibody 20 nM (mouse BLyS protein): 2620 OD450 nm | mouse B lymphocyte proliferation (OD450 nm), antibody 100 nM (mouse BLyS protein): 2740 OD450 nm | MFI [12]: 46.9 MFI | MFI [13]: 785 MFI | MFI [14]: 76.6 MFI | MFI [15]: 327 MFI | MFI [16]: 306 MFI | MFI [17]: 175 MFI
B4: 93C6F10D3 (antibody, V domains shown)
VH: EVQLVESGGGLVTPGGSLKLSCVASGFAFSTYGMSWVRQTPERRLEWVAYISGGGGSIYYPDSVKGRFTISRDNAKNILYLQMSSLKSEDTAMYHCTRHPDLLLRYDYALDHWGQGTSVTVSS
VL: DIQMTQSPASLSASVGETVTITCRASENIHIYLAWYQQKQGKSPQLLVYNGKTLADGVPSRFSGSGSGTQYSLKINTLQPEDFGNYYCQHFWNSTWTFGGGTKLEIK
notes: as for B1

EC50 (read off the curve) [18]: ~0.1 nM | EC50 (read off the curve) [19]: ~0.1 nM
B5: 93C6F10D3 (antibody, V domains shown)
VH: B4 VH
VL: B4 VL
notes: as for B2
